The values below come from PMC3976097.

Usually Kd stands for the equilibrium constant for the complex coming apart.

The target in assay [1] is Recombinant human IFN-α/β R2-Fc chimera (human) (UniProt P48551).
For assay [2] the target is unchanged. The assay can be described thus: SPR; BIAcore T-100; human IFNR2-Fc captured on a CM5 chip by an immobilized anti-human IgG Fc antibody; Nova or IFN-α2b in the solution phase; binding measured under equilibrium conditions.

Sequence of UniProt P48551 (P48551 27-243, change not shown): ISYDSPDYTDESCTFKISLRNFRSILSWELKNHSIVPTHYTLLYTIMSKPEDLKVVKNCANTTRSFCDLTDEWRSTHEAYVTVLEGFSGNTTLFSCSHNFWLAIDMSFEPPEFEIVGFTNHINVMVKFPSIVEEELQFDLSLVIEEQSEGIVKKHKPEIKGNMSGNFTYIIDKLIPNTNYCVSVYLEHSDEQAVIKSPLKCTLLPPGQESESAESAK

Turning to Novaferon (ligand), in assay [1], the anti-tumor activity against Daudi cell lines (MTT anti-proliferative assay) stood at 2.74e+10 U/mg and the anti-virus activity, WISH/VSV system (cytopathic effect reduction assay) worked out at 1.34e+09. For the same substance, the Kd in assay [2] is 0.0123 nM.
